Results: WO2022210830A1 (dated 2022)

Columns and labels:
Assay in all cases: cell-based or functional assay
[1] = target: Kappa strain spike protein on pseudotype virus (SARS-CoV-2, UniProt P0DTC2 14-1273)
[2] = target: Delta strain spike protein on pseudotype virus (SARS-CoV-2, UniProt P0DTC2 14-1273)
[3] = target: Omicron strain spike protein on pseudotype virus (SARS-CoV-2, UniProt P0DTC2 14-1273)

B1: 0210-28K (antibody, V domains shown)
VH: QMQLVQSGPEVKKPGTSVKVSCKASGFTFSISAVQWVRQARGQRLEWIGWIVVGSGNTNYAQKFQERVTITRDMSTSTAYMELSSLRFEDTAVYYCAAPYCGGDCSDGFDIWGQGTMVTVSS
VL: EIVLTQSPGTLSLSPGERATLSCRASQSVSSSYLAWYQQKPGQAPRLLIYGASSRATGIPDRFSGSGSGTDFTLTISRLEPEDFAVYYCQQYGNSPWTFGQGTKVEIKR
IC50, inhibition of pseudotype virus infection, 1st experiment [1]: 0.0108 µg/mL
IC50, inhibition of pseudotype virus infection, 2nd experiment [1]: 0.0203 µg/mL
IC50, inhibition of pseudotype virus infection, 1st experiment [2]: < 0.0075 µg/mL
IC50, inhibition of pseudotype virus infection, 2nd experiment [2]: 0.0121 µg/mL
IC50, inhibition of pseudotype virus infection (luciferase) [3]: ~0.2 nM
